Measured values: PMC9949273 (The Journal of Cell Biology, 2023)

B1: GST-tagged ATL3 (natural protein, human, UniProt Q6DD88 1-541, looked up)
chain: MLSPQRVAAAASRGADDAMESSKPGPVQVVLVQKDQHSFELDEKALASILLQDHIRDLDVVVVSVAGAFRKGKSFILDFMLRYLYSQKESGHSNWLGDPEEPLTGFSWRGGSDPETTGIQIWSEVFTVEKPGGKKVAVVLMDTQGAFDSQSTVKDCATIFALSTMTSSVQIYNLSQNIQEDDLQQLQLFTEYGRLAMDEIFQKPFQTLMFLVRDWSFPYEYSYGLQGGMAFLDKRLQVKEHQHEEIQNVRNHIHSCFSDVTCFLLPHPGLQVATSPDFDGKLKDIAGEFKEQLQALIPYVLNPSKLMEKEINGSKVTCRGLLEYFKAYIKIYQGEDLPHPKSMLQATAEANNLAAAASAKDIYYNNMEEVCGGEKPYLSPDILEEKHCEFKQLALDHFKKTKKMGGKDFSFRYQQELEEEIKELYENFCKHNGSKNVFSTFRTPAVLFTGIVALYIASGLTGFIGLEVVAQLFNCMVGLLLIALLTWGYIRYSGQYRELGGAIDFGAAYVLEQASSHIGNSTQATVRDAVVGRPSMDKKAQ

Assays:
[1] = molecular target: ATL2-1 (major splice isoform of ATL2) (human, UniProt Q8NHH9 1-583); test: cross-linking
GST-tagged ATL3 = molecular target: B1; test: pull-down

Row | binding result [1] | binding result (GST-tagged ATL3) | Binder
1 | binds | – | B1
2 | – | binds | His6-tagged N-terminal cytoplasmic domain of ATL2 (1–480) (domain or fragment, human, UniProt Q8NHH9 1-480, looked up) MAEGDEAARGQQPHQGLWRRRRTSDPSAAVNHVSSTTSLGENYEDDDLVNSDEVMKKPCPVQIVLAHEDDHNFELDEEALEQILLQEHIRDLNIVVVSVAGAFRKGKSFLLDFMLRYMYNKDSQSWIGGNNEPLTGFTWRGGCERETTGIQVWNEVFVIDRPNGTKVAVLLMDTQGAFDSQSTIKDCATVFALSTMTSSVQVYNLSQNIQEDDLQHLQLFTEYGRLAMEEIYQKPFQTLMFLIRDWSYPYEHSYGLEGGKQFLEKRLQVKQNQHEELQNVRKHIHNCFSNLGCFLLPHPGLKVATNPSFDGRLKDIDEDFKRELRNLVPLLLAPENLVEKEISGSKVTCRDLVEYFKAYIKIYQGEELPHPKSMLQATAEANNLAAVAGARDTYCKSMEQVCGGDKPYIAPSDLERKHLDLKEVAIKQFRSVKKMGGDEFCRRYQDQLEAEIEETYANFIKHNDGKNIFYAARTPATLFA
